Test results: patent US20250171562A1 (ALK ABELL, published 2025)

B1: sdAb E4 (VHH)
VHH: DVQLQESGGGLVQPGGSLRLSCAASGFRFSNYAMRWYRQAPGKEREFVARISSTGFITRYTASVRDRFTISRDNDKNMMYLQLNKLTPQDTAHYYCNAESTDYWGQGTQVTVS
B2: sdAb E3 (VHH)
VHH: DVQLQESGGGLVQAGGSLRLACAASGRTLSSYVVSWFRQAPGKERKFVAAITWSGLSTTYLDSVQGRFTISRDNTKDTVYLQMNSLKPQDTAIYYCAAGPNIPSILRTRESEYAYWGQGTQVTVS
B3: sdAb F5 (VHH)
VHH: DVQLQESGGGLVQPGGSLRLSCAASGSIFSIDIMGWYRQAPGKQRELVATMPEGNYINYADSVKGRLTLSRDKGKNTVYLQLNSLKPEDTAVYYCYGFGVREGRGNVYWGQGTQVTVS
B4: sdAb A1 (VHH)
VHH: EVQLLESGGGLVQPGGSLRLSCAASGFTFGNYDMAWVRQAPGKRPEWVSSIDTGGDITHYADSVKGRFTISRDNAKNTLYLQMNSLRPEDTAVYWCATDEEYALGPNEFDYYGQGTLVTVSS
notes: also called sdAb 026; IGE026
B5: F1A1(G4S)4 (bispecific antibody)
chain: DVQLQESGGGLVQAGGSLKLSCAASGGSLSRYDMGWFRQAPGKEREFVARISWSGTTKYYADAVKGRFAISRDNAKNTVYLQMNSLKPEDTAVYYCAAAFYGNRGYYDVNAYTSSGQGTQVTVSGGGGSGGGGSGGGGSGGGGSEVQLLESGGGLVQPGGSLRLSCAASGFTFGNYDMAWVRQAPGKRPEWVSSIDTGGDITHYADSVKGRFTISRDNAKNTLYLQMNSLRPEDTAVYWCATDEEYALGPNEFDYYGQGTLVTVS
B6: sdAb B3 (VHH)
VHH: DVQLQESGGGLVQAGGSLRLSCAASGFIFRLAGMSWVRQAPGKGFEWVSGITMDGSTTNYADSVKGRFTISRDNSKNRLYLQMNSLKPEDTAVYYCARGAKGGYNDPRGQGTQVTVS
B7: sdAb D1 (VHH)
VHH: DVQLQESGGGLVQAGGSLRLSCAASGLTFSRCDMGWFRQAPGKEREFVARISANGASTHYADFVKGRFTISRDNAKNTVYLQMNYLKPEDTAVYICAAARVPVTWQLYDYWGQGTQVTVS
B8: sdAb F4 (VHH)
VHH: DVQLQESGGGLVQAGGSLRLSCAVSGLSFSSMGWFRQPPGKEREFVAAISLYSGSTYYADSVKGRFTISSDNAKSTVYLQMNSLKPEDAAVYFCAADRQRTWSTFYASRQATYNYWGQGTQVTVTS
B9: sdAb E1 (VHH)
VHH: DVQLQESGGGLVQAGGSLRLSCLASGRTFTTTSGYNMGWFRQAPGKEREFVAGIKWVSGSNRAYAESVKGRFTISRDNAKNTVYLQMNSLKPEDTAVYYCAAATGQSYVPIREYEYVYWGQGTQVTVS
B10: sdAb B1 (VHH)
VHH: QVQLQESGGGLVQTGGSLRLSCAVHGRTFSNTGMGWFRQAPGNERQFVAIISPSGTSTYYADSVKGRFTISRDPAKNTVYLQMNSLKMDDTAVYYCAASYGSNWSTLRHQRRNEYDAWGQGTQVAVS
B11: sdAb G1 (VHH)
VHH: DVQLQESGGGLVQAGGSLRLSCAASGFIVSDNVMSWYRQAPGKQRDMVATIMLNGDTAHADSVKGRFTISRDHAKNTVYLQMNSLKPEDTAVYYCNARDSMLEPGRGAWGQGTLVTVS
B12: sdAb E2 (VHH)
VHH: DVQLQESGGGLVQAGGSLRLSCAASGRTISRYAVGWFRRPPAKEREFIGINWSGGSTTYADSAEGRFIISRDNAKNTVYLQMNSLKPEDTAVYYCAVPSVLVQGGISNPSQYDYWGQGTQVTVS
B13: sdAb B2 (VHH)
VHH: QVQLVESGGGLVQAGGSLRLSCAVFGSTFSNNVADWYRQAPGKQRELVARISASGATREYGDSVKGRFTISRDDAKNTMYLQMNNLKPEDTAVYRCHKIEWEDLSRKDYWGQGTQVTVS
B14: sdAb F3 (VHH)
VHH: DVQLQESGGGLVQAGGSLKLSCAASRGSLSRWDVAWFRQAPGKERSFVTRISWSGTTSYYADAVKGRFAISRDNAKNTVYLQMNSLKPEDTAVYYCAVALYGNRGYYDVNAHSYWGQGTQVTVS
B15: sdAb D2 (VHH)
VHH: DVQLQESGGGLVEAGGSLRLSCVASGRTFSGWSMGWFRQAPGKEREFVAAISWVGSWIGGTVYSNSVKGRFTISRDNARTTVYLQMNSLKPEDTAVYFCAAANSETPRIFASEYDYWGQGTQVTVS
B16: sdAb F1 (VHH)
VHH: DVQLQESGGGLVQAGGSLKLSCAASGGSLSRYDMGWFRQAPGKEREFVARISWSGTTKYYADAVKGRFAISRDNAKNTVYLQMNSLKPEDTAVYYCAAAFYGNRGYYDVNAYTSSGQGTQVTVS

Key:
IgE-Fc Cε3-4 [1] = biological target: T1, IgE-Fc Cε3-4 (human, UniProt P01854-1 209-428, limits assumed); experiment: ELISA, immobilised IgE-Fc Cε3-4
T1 construct: domain: Cε3-Cε4; coated at 2 µg/mL in the ELISA; also called IgE-Fc Cε3-Cε4
Procedure: (§1) SdAb monomers of interest (table 1) and identified in example 2 were amplified from pNT plasmid by PCR and recloned in pET22b plasmid by SLICE cloning reaction. Thereby, a pelB signal sequence and a C-terminal his/HA tag were added to the sdAbs allowing for secretion into periplasmic space and subsequent purification and detection. SdAbs were expressed in E. coli Rosetta (DE3) cells using 2YT media. Expression was induced in early exponential phase with 0.5 mM IPTG and carried overnight at 20° C.-25° C. Purification of sdAbs from supernatant or supernatant+periplasmic extract was performed by IMAC using HisTrap excel column (Cytiva) as first step and by SEC with a Hiload 16-600 Superdex® 75 pg (Cytiva) column as second step. Size and purity of each sdAbs were evaluated on a 15% acrylamide SDS-PAGE. Then, immunoreactivity of sdAbs against immobilized IgE-Fc Cε2-4 and IgE-Fc Cε3-4 was analysed by ELISA. IgE-Fc were coated at 2 μg/mL overnight in a Nunc MaxiSorp plate (ThermoFisher). After blocking sdAbs were added at a 1:10 dilution in TBS and incubated 3h at room temperature. Detection was performed using a mouse anti-HA antibody (ThermoFisher) and an anti-mouse IgG AP conjugated (Sigma Aldrich).

IgE-Fc Cε2-4 = biological target: T2, IgE-Fc Cε2-4 (human, UniProt P01854-1 104-428, limits assumed); experiment: ELISA, immobilised IgE-Fc
T2 construct: domain: Cε2-Cε4; coated at 2 µg/mL in the ELISA; also called IgE-Fc Cε2-Cε4
Procedure: as §1

recombinant human IgE = biological target: T3, recombinant human IgE (human, UniProt P01854-1 1-428); experiment: IgE-FcεRIα displacement ELISA
T3 construct: made in-house (ALK); preloaded on immobilised FcεRIα in the displacement ELISA
Summary of the method: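 Streptavidin-coated plates carried site-specifically biotinylated recombinant human FcεRIα, loaded with recombinant human IgE at 13 ng/ml. sdAbs in a pM–μM series were added for 1 h, and displaced IgE was washed off. Percent displacement was the signal reduction versus the no-sdAb control, giving EC50 and maximal effect.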

biotinylated IgE Fc = biological target: T4, biotinylated IgE Fc (UniProt P01854-1 104-428, biotinylated); experiment: BLI (Octet), IgE Fc on sensor, 1:1 fit
T4 construct: also called IgE Fc (made in-house ALK, Denmark)
Procedure: The biotinylated IgE Fc (made in-house ALK, Denmark) was immobilised on SAX (High precision streptavidin) sensors (FortéBIO) to max 1 nm. The association (240 s) and dissociation (600 s) were measured for the analytes in a serial dilution (from 10 nM to 0.37 nM). Data were subtracted to blank reference sensors exposed to the same serial analyte dilutions, aligned, and analysed in the Octet Data Analysis HT 11.1 Software (FortéBIO) using a 1:1 fitting model.

[2] = biological target: T5, biotinylated IgE: FcεRIα complex (UniProt P01854 104-428; P12319 26-205, biotinylated); experiment: yeast display titration, flow cytometry
T5 construct: preformed complex used for yeast display titration and deep mutational scanning; also called IgE-Fc/FcεRIα; IgE-Fc Cε2-Cε4/FcεRIα complex

IgE-Fc Cε3-4 [3] = biological target: T1, IgE-Fc Cε3-4; experiment: ELISA, immobilised IgE-Fc
Procedure: as §1

T3 sequence (P01854 other isoform, or with tags, fused parts or gaps): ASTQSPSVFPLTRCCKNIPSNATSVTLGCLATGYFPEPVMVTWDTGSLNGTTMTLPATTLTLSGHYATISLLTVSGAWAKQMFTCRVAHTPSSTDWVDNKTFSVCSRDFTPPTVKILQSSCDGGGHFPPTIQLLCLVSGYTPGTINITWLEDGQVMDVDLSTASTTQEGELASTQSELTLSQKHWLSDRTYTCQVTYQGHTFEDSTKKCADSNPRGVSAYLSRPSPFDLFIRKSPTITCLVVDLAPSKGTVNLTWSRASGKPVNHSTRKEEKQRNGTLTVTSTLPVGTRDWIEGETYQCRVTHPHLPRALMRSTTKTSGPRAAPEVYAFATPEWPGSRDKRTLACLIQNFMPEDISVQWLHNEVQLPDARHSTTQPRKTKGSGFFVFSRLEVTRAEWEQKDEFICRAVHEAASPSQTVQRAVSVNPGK
T4 sequence (P01854 other isoform, or with tags, fused parts or gaps): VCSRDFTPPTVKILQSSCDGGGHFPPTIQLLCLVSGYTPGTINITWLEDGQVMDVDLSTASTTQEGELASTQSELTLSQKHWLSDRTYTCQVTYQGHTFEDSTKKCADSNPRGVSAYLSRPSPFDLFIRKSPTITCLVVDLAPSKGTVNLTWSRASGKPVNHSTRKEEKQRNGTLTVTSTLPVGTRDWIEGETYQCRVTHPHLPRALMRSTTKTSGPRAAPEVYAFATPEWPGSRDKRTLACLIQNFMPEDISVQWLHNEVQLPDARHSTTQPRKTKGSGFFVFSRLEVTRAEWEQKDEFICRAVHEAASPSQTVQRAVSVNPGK
T1 sequence (P01854 other isoform, or with tags, fused parts or gaps limits assumed): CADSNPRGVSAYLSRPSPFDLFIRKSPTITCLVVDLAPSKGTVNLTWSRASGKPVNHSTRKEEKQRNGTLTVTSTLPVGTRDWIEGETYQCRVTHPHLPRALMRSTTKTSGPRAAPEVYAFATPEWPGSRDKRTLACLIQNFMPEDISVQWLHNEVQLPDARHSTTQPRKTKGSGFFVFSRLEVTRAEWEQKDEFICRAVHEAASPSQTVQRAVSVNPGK
T5 sequence (P12319 26-205, chain 2 of 2): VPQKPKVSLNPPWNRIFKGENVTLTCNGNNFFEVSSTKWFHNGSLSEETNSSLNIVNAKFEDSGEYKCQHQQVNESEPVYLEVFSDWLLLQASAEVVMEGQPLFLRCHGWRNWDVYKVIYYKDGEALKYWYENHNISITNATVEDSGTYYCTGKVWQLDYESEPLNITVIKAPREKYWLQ

Binder | binding result (IgE-Fc Cε3-4 [1]) | binding result (IgE-Fc Cε2-4) | Max effect (recombinant human IgE) [%] | EC50 (recombinant human IgE) [µM] | Kd (biotinylated IgE Fc) [µM] | koff (biotinylated IgE Fc) [s⁻¹] | kon (biotinylated IgE Fc) [M⁻¹ s⁻¹] | apparent Kd (pooled screen) [2] [µM] | binding result (IgE-Fc Cε3-4 [3])
B1 | no binding | binds | – | – | – | – | – | – | –
B2 | no binding | – | 0 | – | – | – | – | – | –
B3 | no binding | – | 35 | – | – | – | – | – | –
B4 | – | – | > 95 | 0.8 | 0.00019 | 0.0002 | 1e+06 | 0.000345 | –
B5 | – | – | > 95 | 4 | – | – | – | – | –
B6 | no binding | – | 0 | – | 0.00028 | 0.00025 | 880000 | – | –
B7 | no binding | – | 0 | – | 0.0032 | 0.00045 | 140000 | – | –
B8 | no binding | – | < 20 | – | – | – | – | – | –
B9 | no binding | – | < 20 | – | – | – | – | – | –
B10 | no binding | – | 65 | 0.2 | 0.065 | 0.049 | 760000 | – | –
B11 | – | binds | – | – | – | – | – | – | binds
B12 | no binding | – | 0 | – | – | – | – | – | –
B13 | no binding | – | < 20 | – | 0.00011 | 7.8e-05 | 700000 | – | –
B14 | no binding | – | 0 | – | – | – | – | – | –
B15 | no binding | – | 50 | 10 | 0.081 | 0.02 | 240000 | – | –
B16 | no binding | – | 0 | – | – | – | – | – | –
